The supplement of paper PMC10567573

B1: NET1 (parent)
chain: IKRTIRVLDVNNQSFREQEEPSNK
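Further: lentivirally expressed fusions sorted by FACS into six bins by GFP to DsRed ratio, PSI derived from sequencing read proportions per bin multiplied by bin number.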

Variants of: B1
Test: protein stability index of a GFP-peptide fusion (GPS, HEK-293T) (PSI 1-6); higher = more stable
Settings: c terminus: a fixed tail appended
Work on IKRTIRVLIVNNQSFREQEEPSNK yielded a protein stability index of 1.58.
In the case of IKRTIRVLNVNNQSFREQEEPSNK, the protein stability index is reported as 4.11.
In the case of IKRTIRVLMVNNQSFREQEEPSNK, the protein stability index is reported as 1.91.
With IKRTIRVLCVNNQSFREQEEPSNK the protein stability index was 2.94.
For IKRTIRVLRVNNQSFREQEEPSNK, the protein stability index was 3.54.
Variant IKRTIRVLTVNNQSFREQEEPSNK has a protein stability index of 2.9.
Work on IKRTIRVLFVNNQSFREQEEPSNK yielded a protein stability index of 2.24.
In the case of IKRTIRVLGVNNQSFREQEEPSNK, the protein stability index is reported as 3.7.
Variant IKRTIRVLLVNNQSFREQEEPSNK has a protein stability index of 1.77.
IKRTIRVLYVNNQSFREQEEPSNK gave a protein stability index of 2.41.
For IKRTIRVLPVNNQSFREQEEPSNK, the protein stability index was 4.36.
In the case of IKRTIRVLKVNNQSFREQEEPSNK, the protein stability index is reported as 4.44.
IKRTIRVLDGNNQSFREQEEPSNK showed a protein stability index of 4.22.
For IKRTIRVLDLNNQSFREQEEPSNK, the protein stability index was 3.85.
For IKRTIRVLDSNNQSFREQEEPSNK, the protein stability index was 3.85.
With IKRTIRVLDYNNQSFREQEEPSNK the protein stability index was 4.06.
For IKRTIRVLDDNNQSFREQEEPSNK, the protein stability index was 4.83.
In the case of IKRTIRVLDNNNQSFREQEEPSNK, the protein stability index is reported as 4.46.
With IKRTIRVLDTNNQSFREQEEPSNK the protein stability index was 4.23.
With IKRTIRVLDKNNQSFREQEEPSNK the protein stability index was 4.35.
With IKRTIRVLDINNQSFREQEEPSNK the protein stability index was 3.87.
Work on IKRTIRVLDANNQSFREQEEPSNK yielded a protein stability index of 3.38.
In the case of IKRTIRVLDPNNQSFREQEEPSNK, the protein stability index is reported as 3.21.
In the case of IKRTIRVLDQNNQSFREQEEPSNK, the protein stability index is reported as 4.03.
Variant IKRTIRVLDENNQSFREQEEPSNK has a protein stability index of 4.79.
IKRTIRVLDHNNQSFREQEEPSNK gave a protein stability index of 4.23.
With IKRTIRVLDRNNQSFREQEEPSNK the protein stability index was 4.04.
For IKRTIRVLDFNNQSFREQEEPSNK, the protein stability index was 3.19.
IKRTIRVLDMNNQSFREQEEPSNK showed a protein stability index of 4.
IKRTIRVLDCNNQSFREQEEPSNK showed a protein stability index of 3.82.
With IKRRIRVLDVNNQSFREQEEPSNK the protein stability index was 3.99.
In the case of IKRSIRVLDVNNQSFREQEEPSNK, the protein stability index is reported as 4.09.
With IKRWIRVLDVNNQSFREQEEPSNK the protein stability index was 2.38.
Variant IKRVIRVLDVNNQSFREQEEPSNK has a protein stability index of 2.51.
Work on IKRYIRVLDVNNQSFREQEEPSNK yielded a protein stability index of 3.09.
Variant IKRQIRVLDVNNQSFREQEEPSNK has a protein stability index of 3.86.
Variant IKRPIRVLDVNNQSFREQEEPSNK has a protein stability index of 3.89.
Variant IKRTIRGLDVNNQSFREQEEPSNK has a protein stability index of 3.92.
In the case of IKRTIRTLDVNNQSFREQEEPSNK, the protein stability index is reported as 4.21.
In the case of IKRTIRLLDVNNQSFREQEEPSNK, the protein stability index is reported as 3.46.
Work on IKRTIRKLDVNNQSFREQEEPSNK yielded a protein stability index of 4.37.
IKRTIRILDVNNQSFREQEEPSNK gave a protein stability index of 4.02.
Work on IKRTIRWLDVNNQSFREQEEPSNK yielded a protein stability index of 2.41.
With IKRTIRMLDVNNQSFREQEEPSNK the protein stability index was 3.27.
With IKRTIRELDVNNQSFREQEEPSNK the protein stability index was 3.74.
IKRTIRDLDVNNQSFREQEEPSNK showed a protein stability index of 4.53.
Work on IKRTIRRLDVNNQSFREQEEPSNK yielded a protein stability index of 3.71.
With IKRTIRCLDVNNQSFREQEEPSNK the protein stability index was 3.62.
IKRTIRQLDVNNQSFREQEEPSNK showed a protein stability index of 5.07.
With IKRTIRFLDVNNQSFREQEEPSNK the protein stability index was 3.35.
Work on IKRTIRALDVNNQSFREQEEPSNK yielded a protein stability index of 3.3.
For IKRTIRNLDVNNQSFREQEEPSNK, the protein stability index was 4.5.
IKRTIRSLDVNNQSFREQEEPSNK showed a protein stability index of 4.28.
For IKRTIRYLDVNNQSFREQEEPSNK, the protein stability index was 3.04.
Work on IKRTIRPLDVNNQSFREQEEPSNK yielded a protein stability index of 4.22.
Work on IKRTIRHLDVNNQSFREQEEPSNK yielded a protein stability index of 4.25.
For IKRTIRVLDVPNQSFREQEEPSNK, the protein stability index was 4.16.
IKRTIRVLDVENQSFREQEEPSNK gave a protein stability index of 4.51.
IKRTIRVLDVQNQSFREQEEPSNK gave a protein stability index of 4.34.
In the case of IKRTIRVLDVVNQSFREQEEPSNK, the protein stability index is reported as 3.56.
Work on IKRTIRVLDVYNQSFREQEEPSNK yielded a protein stability index of 4.06.
With IKRTIRVLDVINQSFREQEEPSNK the protein stability index was 1.85.
Variant IKRTIRVLDVTNQSFREQEEPSNK has a protein stability index of 3.41.
Work on IKRTIRVLDVFNQSFREQEEPSNK yielded a protein stability index of 2.61.
IKRTIRVLDVDNQSFREQEEPSNK gave a protein stability index of 4.47.
For IKRTIRVLDVGNQSFREQEEPSNK, the protein stability index was 2.99.
Work on IKRTIRVLDVKNQSFREQEEPSNK yielded a protein stability index of 4.44.
With IKRTIRVLDVSNQSFREQEEPSNK the protein stability index was 4.22.
IKRTIRVLDVHNQSFREQEEPSNK showed a protein stability index of 3.62.
IKRTIRVLDVLNQSFREQEEPSNK gave a protein stability index of 2.26.
In the case of IKRTIRVLDVCNQSFREQEEPSNK, the protein stability index is reported as 3.09.
For IKRTIRVLDVWNQSFREQEEPSNK, the protein stability index was 2.65.
With IKRTIRVLDVMNQSFREQEEPSNK the protein stability index was 2.83.
In the case of IKRTIRVLDVRNQSFREQEEPSNK, the protein stability index is reported as 4.41.
In the case of IKRTIRVLDVANQSFREQEEPSNK, the protein stability index is reported as 4.48.
Variant IKRTIRVLDVNNFSFREQEEPSNK has a protein stability index of 2.72.
IKRTIRVLDVNNDSFREQEEPSNK showed a protein stability index of 3.56.
For IKRTIRVLDVNNWSFREQEEPSNK, the protein stability index was 2.51.
With IKRTIRVLDVNNSSFREQEEPSNK the protein stability index was 4.19.
In the case of IKRTIRVLDVNNNSFREQEEPSNK, the protein stability index is reported as 3.69.
IKRTIRVLDVNNASFREQEEPSNK gave a protein stability index of 4.18.
In the case of IKRTIRVLDVNNESFREQEEPSNK, the protein stability index is reported as 4.26.
Work on IKRTIRVLDVNNTSFREQEEPSNK yielded a protein stability index of 3.37.
With IKRTIRVLDVNNYSFREQEEPSNK the protein stability index was 2.04.
IKRTIRVLDVNNPSFREQEEPSNK showed a protein stability index of 3.35.
For IKRTIRVLDVNNGSFREQEEPSNK, the protein stability index was 3.8.
For IKRTIRVLDVNNKSFREQEEPSNK, the protein stability index was 3.7.
In the case of IKRTIRVLDVNNRSFREQEEPSNK, the protein stability index is reported as 3.27.
Variant IKRTIRVLDVNNMSFREQEEPSNK has a protein stability index of 3.8.
Work on IKRTIRVLDVNNCSFREQEEPSNK yielded a protein stability index of 3.01.
Variant IKRTIRVLDVNNLSFREQEEPSNK has a protein stability index of 2.33.
IKRTIRVLDVNNISFREQEEPSNK gave a protein stability index of 2.99.
IKRTIRVLDVNNVSFREQEEPSNK gave a protein stability index of 3.67.
Work on IKRTIRVLDVNNHSFREQEEPSNK yielded a protein stability index of 3.28.
